Source: the DeepSol protein solubility set

Assay: soluble on expression in E. coli; label from the status in PepcDB or PDB records

Sequence	soluble on expression in E. coli
MGSDKIHHHHHHMKLNTLLQRLDQTVPLAFDTSLQNPEITSLQFDDDTTLSLHPTSLYLAVSADQTITLKGSVGKTAQLSLCAQMQLKNESQLAQLFDRAGCLLTSETSLQAQVNQLAIKAITEDFDTILNQAARTLGNPLIVLDLVGQPVAQSTQAPAISDLTAPAITSVQVQQALKKFRPAKDLIPQVILIQQSQLPLLLLCLPLAYRNNALGYLVMPACVRPLTAEQTAFFKAEAKIITSSLIKNRMMPTAASKRDQLLTMLLTEQQSGTFAAQFAKEHATLPTSMVLIKGEPRAGQSLAALKERLKYLLTPLFSQTLITLYHHQCLALVSVDLPTYNNPEFKADLATIADRANCRLIVSNQYTRPEDTIAAYAVCSRTAKLKSQPTHVTMCEDAFFDLMLAQVDHAEILPFFINPAVKALMDHDAENKTELLPTLDAYLESGENLTHTARQLFIHLNTLRYRLKHISDITGIDLKDAETCFKLGASFKVRRYLNHNKLTFTR	not soluble
MTKPVVDVKNVQKVYGKKGENQSHALKGVSFSIQEGEFVGIMGPSGSGKTTLLNVISTLDKATGGVVEIAGTDITKMKQGELSDFRSQKLGFIFQDFNLLENLSIYENIALPLSLQGVPSRNIGPKVEKVADMLGISAILQKYPSEVSGGQKQRSAAARALVHEPAIILGDEPTGALDSKNATSLLDAMTNLNQEQGVSIMMVTHDPFSASYCQRILFIQDGELYKEIHRGGTREEFYKEILDVLADLGTQKA	not soluble
FECGVNSLDEWLKRRALANQHSGASRTFVVADHDSRVYGYYAMAAGAVSHQAATSGVRRNMPDPVPVMVLARLAVDQRAQGIKLGAALLQDAVNRVVNVSHNVGVRALLVHALDDRAKQFYAHYGFKESPQHPM	not soluble
SDRAEVRNIPFKLGMYLTVGGVVNSNATRFSINVGESTDSIAMHMDHRFSYGADQNVLVLNSLVHNVGWQQEERSKKFPFTKGDHFQITITFDTHTFYIQLSNGETVEFPNRNKDAAFNLIYLAGDARLTFVRLE	soluble
MGSDKIHHHHHHMEVERISGLKFHKKQDVAIVGAGMTTFKRRLNETGRELSYLAVKQALEEAGLTIDDIEMVVMGSAPDAFDGFHMKGEYLLDGSGGSNRPYMRVFVGGGTGVFAPIAGYWHVASGLADVCLVVCEEKMSSVHPHPQSAFKYIWDPILDRPLNPNLIWIFALEMRRYMHVHNIKHEDIALVSVKNKANALDHPCAQVAEKITVEDVLNSEPMALPVRRLDVSPPSDGAAALIMVAPHIARQLTDNPVWVTGVGWALDTTWWTNRDLYFPRYVAEAAKMAYRMAHITDPRKEIDVAEPYDPFDYKELHHMEGLGLAKKGEAPILTREGVTQRDGDLPTCPSGGLLGVGNPIAATMGVKACEIYWQLAYRAGKRQVAKEVTTGVCQAWGDLMQVGTVMVMSNKR	not soluble
MGFLKGKKGLIVGVANNKSIAYGIAQSCFNQGATLAFTYLNESLEKRVRPIAQELNSPYVYELDVSKEEHFKSLYNSVKKDLGSLDFIVHSVAFAPKEALEGSLLETSKSAFNTAMEISVYSLIELTNTLKPLLNNGASVLTLSYLGSTKYMAHYNVMGLAKAALESAVRYLAVDLGKHHIRVNALSAGPIRTLASSGIADFRMILKWNEINAPLRKNVSLEEVGNAGMYLLSSLSSGVSGEVHFVDAGYHVMGMGAVEEKDNKATLLWDLHKEQ	soluble
MFKKALFILSLCPSFALAQSYVVYDFTHNRVLESHASDSIQPIASVTKLMTANVFLENNKNPNCRIAITKEDTDRIKGTGTKLPKNIPISCNELLKAMLVHSDNYAAHALSRAAGISRRQFIKKMNEKAHQLGMYSTRFHDSSGLSSYNISSPMDLVKLAKYSLNKSDIKRLSNLSATYIQAGKQKLYIKNTNKLVRDEIFDAAVNKTGYIQESGYNLVFINKHRCKNATIGVISLNNTSSAYRSSFTKSKLEKFGCTALNGRTIRDVAGEAQYEDGYDEVGFNTLIQKLSK	not soluble
MFVTQQLKLMGTVIDIQIESDKACQQLSRVIDLLYTYKNRFSANDSNSELMAINQAAGVKPVSVHSDLFNLIQIGKAHSLSTPSNLNIAIGPLVQAWRIGFEDARVPSHNLISQQLALTDPRQVLIDDKKQTVFLQQVGMALDLGALAKGYITDKIMAYLIEDGIDSALINLGGNVRVHGPNPKSPDKTFRIGIQKPDAKRGQHLGVIKVNNHSVVTSGIYERQFTSKGKQYHHILDRQTGYPIETDMLSLTIMAPSSFYCDIWTTRLFGLDSSMIITLLNTFDNIEGLLVTRKHHVLMSNGLRHYFQPYYH	not soluble
SNAEKAVLIGEKEADITFVTWGSQKGPILDVIEDLKEEGISANLLYLKMFSPFPTEFVKNVLSSANLVIDVESNYTAQAAQMIKLYTGIDIKNKILKYNGRHMTEDEILKSAKEILNK	soluble
MSADLKQSRLADWRQRALAFEREVGKAVIGLERPIRHILIAVFARGHVMLEGDVGVGKTTLLRAVARCLGGAYERVEGTIDLMPNDLVYHTYINELGKPQVEPGPVLKHGEELSVFFFNEVNRARPQVHSLLLRIMAEHAVSAFNREHFFPYLQVFADRNRVEKEETFEIPSAARDRFMMELHVETPADPALRRALMFDPKFHDVDRLLDTLTPGILPYREIPQIAPVIQQSVTASETLQQYALDLWEATRRPADYGVKLEGIDMDRLILAGASARGVSMMMRAARVAAWLDGRDYLVPEDIHDVFRETIGHRVFFNPVYELRRTALIDELLHAIRQKVAAPLEHHHHHH	soluble
MGSDKIHHHHHHMTSVEAFRGLYYPNKIGRLCFLSLEEVMGQNGVKALLRLADLQQYIDAYPPNDLKREFPFEAISKYSVALGTMYGPRGARGLELRAGRVAFSLGLKEFGPLLGMADLALKLMPITMKLKIVLNATAQTFDRFSDQSSHVEEERGRFVYHITRCSNCITRPEPGPVFYIARGILEEATAWVSGGRRFAVEQLSCMGQGNCSSCAFAIGKDPLE	not soluble
MSLKFPRKGIPQEEVMRELEKYTSKDLSFSSGKILGSMCTLPHELAKEVFCMYMDRNLGDPGLHPGTKKIEEEVIEMLSDLLHLERGYGHIVSGGTEANILAVRAFRNLADVENPELILPKSAHFSFIKAGEMLGVKLIWADLNPDYTVDVKDVEAKISENTIGIVGIAGTTGLGVVDDIPALSDLARDYGIPLHVDAAFGGFVIPFAKELGYDLPDFDFKLKGVQSITIDPHKMGMAPIPAGGIVFRHKKYLRAISVLAPYLAGGKIWQATITGTRPGASVLAVWALIKHLGFEGYMEIVDRAMKLSRWFAEEIKKTPGAWLVREPMLNIVSFKTKNLRRVERELKSRGWGISAHRGYIRIVSHASCDGGHDEGHHHHHH	soluble
MLSARYLHLHEALGLGPMWLKQAAAVLPPKNTPAPSAQARPQTVRAAPIRPSQPHNGQARLETMKALETAAVPTRKPAPETETPLPGLSDGIAPVPAASGITKLAVVSLCPPIEDAVYGQLFHGKAGILLDNILKAVGLDAAYVHKTCWVKTAAVGNPMPSEQAVANALGQIARELDGCRAPAVLFLGQAFVQPERQTMIETLCGSRPFFIIDHPARLLRQPELKARAWQVLKQLKRALRQGGGS	not soluble
MATGSGSLIWFRKGLRVHDNPALEYASKGSEFMYPVFVIDPHYMESDPSAFSPGSSRAGVNRIRFLLESLKDLDSSLKKLGSRLLVFKGEPGEVLVRCLQEWKVKRLCFEYDTDPYYQALDVKVKDYASSTGVEVFSPVSHTLFNPAHIIEKNGGKPPLSYQSFLKVAGEPSCAKSELVMSYSSLPPIGDIGNLGISEVPSLEELGYKDDEQADWTPFRGGESEALKRLTKSISDKAWVANFEKPKGDPSAFLKPATTVMSPYLKFGCLSSRYFYQCLQNIYKDVKKHTSPPVSLLGQLLWREFFYTTAFGTPNFDKMKGNRICKQIPWNEDHAMLAAWRDGKTGYPWIDAIMVQLLKWGWMHHLARHCVACFLTRGDLFIHWEQGRDVFERLLIDSDWAINNGNWMWLSCSSFFYQFNRIYSPISFGKKYDPDGKYIRHFLPVLKDMPKQYIYEPWTAPLSVQTKANCIVGKDYPKPMVLHDSASKECKRKMGEAYALNKKMDGKVDEENLRDLRRKLQKDEHEESKIRNQRPKLK	soluble
SWQTYVDTNLVGTGAVTQAAILGLDGNTWATSAGFAVTPAQGQTLASAFNNADPIRASGFDLAGVHYVTLRADDRSIYGKKGSAGVITVKTSKSILVGVYNEKIQPGTAANVVEKLADYLIGQGF	soluble
MAHHHHHHSLIKSMTGFSRVEKVSGPYQFRVEMKSLNSKGLNIINQLPGYLSMKEIELNNLVQEYVSRGKVQTRVQVKFLEPPKVLEIDKNVVRAYYSMLDEIVGELSLPEPVKLSDLLNFREVFRIELSDEEIENIWNHLVPILREALEKLVEERKKEGQKIGADLKRILEDLSSRVEEIEKISDQLPALYREKIKEEVEKILPQDVSVKEDILENHVAFMATKADIREEITRLRSHIKRALELIESDEPVGMNLDFLGQEMLRELNTILSKSISGEITSLALEGKVLVSQFREQIQNVEEG	soluble
MTDKTIAFSLLDLAPIPEGSSAREAFSHSLDLARLAEKRGYHRYWLAEHHNMTGIASAATSVLIGYLAANTTTLHLGSGGVMLPNHSPLVIAEQFGTLNTLYPGRIDLGLGRAPGSDQRTMMALRRHMSGDIDNFPRDVAELVDWFDARDPNPHVRPVPGYGEKIPVWLLGSSLYSAQLAAQLGLPFAFASHFAPDMLFQALHLYRSNFKPSARLEKPYAMVCINIIAADSNRDAEFLFTSMQQAFVKLRRGETGQLPPPIQNMDQFWSPSEQYGVQQALSMSLVGDKAKVRHGLQSILRETDADEIMVNGQIFDHQARLHSFELAMDVKEELLG	soluble
MAAEGVRVEGDWSRLVETIRNLNLSKSELRMLNAQIAQIVAEGSKERFETEKSPEGERWEPLSPATLEARARRRTRRKDGTSGYRTKRGKLSKRAERIIASGRPLKDTGRLMRSIATKATAEAAVIGTNLVQAAIQQLGGKAGRGKKVEIPARPYLGVSSSEEADIMELINEFIRERIQ	not soluble
MSLTSQKTQLEPLGIVRIEGLHYYVHDLERSRRFYAQKLDFAEVARSTPALEREGRQRSAVFEAGGVRVVCSEPVGQGGRAWRWLRKHPDGVGTVVLEVEDAERAFRLLEERGGTPITDVQEHRDDGGTLRTFSITTPLGDTTFRFVERRGFRAVYPGIEPLAAPEGGRNAFGFGHVDHLTNNFQTMKPALLWMEHVMGMEEFWEVEFHTKDAAGARRAAIEAQKGSGLRSVVMRDPRSGVKFANNEPRRPAFKSSQINLFNEDLRGDGVQHAALTVQDILSSVRGMRARGVEFMPTPAAYYEALPERIRSTGIGRIDEDPRVLQELEILVDGAGDHSYLLQIFLRESAGLYHDPDAGPFFFEIIQRKGDQGFGAGNFRALFESIEREQVREGREGHHHHHH	soluble
MPKEWLAEDLSEQYVADYKAFNFVDGEGVRCSLYLSGCPFHCPGCYNVAAQNFHYGQPYSQELEDQIIEDLGQDYVQGLTLLGGEPFLNTQVGIRICERIRSEFGNTKDIWSWSGYTWEELQQDSEDKLKMLSLIDILVDGRFLQDKMDLSLQFRGSSNQRIIDVPKSLTAGKVVIWDKLVKLEHHHHHH	soluble
MRDHRPTATDELIQASKLKQIQEHAKAILLINRQLQDILPKGLKTQVRAANVRGGNLVLEAASAALKMKVDYERLHILTQLRQNGFGHLISIEVRVNPELYRQSKITSEDARAANPRPPLSEHAAHVLLAIADQASDKVKKRLQSLARLAKANQKDD	not soluble
